One assay deals with p50/p65 complex. The assay can be described thus: NF-κB DNA binding assay (EMSA). The format is biochemical, human. Conditions: 293 cells cotransfected with p50 and p65 expression vectors. The method, then:
DNA binding assay. Electrophoretic mobility shift assays (EMSAs) were conducted on 10 μg of nuclear extract protein from 293 cells transiently transfected with pRSV p50/p65 expression constructs and pVR1012 PRMT-2-A/PRMT-2-N expression constructs. A modified Dignam procedure (Dignam et al. Nucleic Acids Res. 11, 1475-1489 (1983)) was used to prepare nuclear extracts from 293 cells. Perkins, N. D. et al. Science 275, 523-527 (1997). NF-KB DNA binding was assayed using a double-stranded 32P-labeled κB probe (Geneka Biotechnology). DNA binding assays were performed as described previously. Perkins et al. Science 275, 523-527 (1997). Supershifting was done using NF-κB p65 (C-20) and NF-κB p50 (H-119) (Santa Cruz). GST-PRMT-2-A fusion proteins were expressed in BL21 (DE3) cells and extracts were prepared as described previously. Smith, D. B. & Johnson, K. S. Gene 67, 31-40 (1988).

Another assay relates to MHC Class I. The assay can be described thus: Flow cytometry of endogenous MHC Class I in 293T cells. The format is cell-based, human. The note with it: 48 hrs after transfection. The protocol:
293 cells were transfected with 1 μg of the indicated reporter plasmids and 5 μg of either PRMT2-A or pVR1012 plasmids. Cells were harvested 36 hours post-transfection, and CAT assays were performed. Data shown are the mean (±SEM)-fold inhibition, in the presence of PRMT2-A, over a vector control of 3 independent experiments. […] 293T human embryonic kidney cells were transfected with HIV-luciferase reporter (WT) or ΔκB-luciferase reporter (ΔκB) and PRMT2 or control vector plasmid. 24 hrs after transfection, cells were treated with vehicle (left panel) or with TNF-α (20 ng/ml; middle panel) or PMA (10 ng/ml; right panel) as indicated, and luciferase activity was measured 48 hrs post transfection. […] 293T cells were transfected with HA-PRMT2 or HA-PRMT2-N. Transfected cells were detached after 48 hrs and analyzed by flow cytometry for MHC Class I and CD9 in HA-positive cells in PRMT2 (FIG. 2C) or PRMT2-N (FIG. 2D) transfected cells. […] 293T cells were transfected with plasmids as indicated where IKK2 or p65 was added as shown, and the κB luciferase reporter gene was used to monitor NF-κB activity 48 hrs after transfection. Values are expressed as fold stimulation compared to the control vector.

The next assay has as its system NF-κB. The assay can be described thus: κB luciferase reporter in MEFs. The format is cell-based, mouse. The note with it: PRMT2−/− MEFs complemented by transfection. The method, then: Cell culture, transfection, and reporter gene assays. The E1A-transformed, human kidney cell line, 293, and NIH-3T3 cells were maintained in Dulbecco's Modified Eagle Medium (DMEM) supplemented with 10% fetal calf serum and penicillin-streptomycin at 37° C. in 5% carbon dioxide in tissue culture grade Petri dishes. PRMT-2−/− mouse embryo fibroblasts (MEFs) and wild type MEFs were prepared from day 13.5 embryos and maintained in DMEM supplemented with 10% fetal calf serum. MEFs at passage 4 were used in this experiment. Lipofectamine Plus™ reagent (Boehringer Mannheim) was used to transfect both 293 and NIH-3T3 cells according to directions from the manufacturer. […] TNF-α stimulation of cells was done using recombinant TNF-α (200 U/ml) for 12 hours. Transfected cells were harvested at 36 hours, and CAT activity was assayed on 10 to 100 μg of protein from whole cell extracts. CAT assays were performed essentially as described in Leung, K. & Nabel, G. J. Nature 333, 776-778 (1988). […] Luciferase activity was analyzed by Dual-Luciferase Reporter Assay System (Promega).
To determine whether similar effects would be observed in non-transformed cell lines with physiological levels of protein, NF-κB inducibility was analyzed in mouse embryonic fibroblasts (MEFs) derived from PRMT2 null mice (T. Y. et al., manuscript in preparation). […]

B1: PRMT2: human PRMT-2 polypeptide, SEQ ID NO:2, expressed from pVR1012 vector with HA-tag (protein, listed as Homo sapiens)
chain: MATSGDCPRSESQGEEPAECSEAGLLQEGVQPEEFVAIADYAATDETQLSFLRGEKILILRQTTADWWWGERAGCCGYIPANHVGKHVDEYDPEDTWQDEEYFGSYGTLKLHLEMLADQPRTTKYHSVILQNKESLTDKVILDVGCGTGIISLFCAHYARPRAVYAVEASEMAQHTGQLVLQNGFADIITVYQQKVEDVVLPEKVDVLVSEWMGTCLLFEFMIESILYARDAWLKEDGVIWPTMAALHLVPCSADKDYRSKVLFWDNAYEFNLSALKSLAVKEFFSKPKYNHILKPEDCLSEPCTILQLDMRTVQISDLETLRGELRFDIRKAGTLHGFTAWFSVHFQSLQEGQPPQVLSTGPFHPTTHWKQTLFMMDDPVPVHTGDVVTGSVVLQRNPVWRRHMSVALSWAVTSRQDPTSQKVGEKVFPIWR
modifications: HA tag
Consider B1, for which the “NF-κB DNA binding in nuclear extracts of transfected cells” value in the assay with p50/p65 complex was “inhibited DNA binding of the p50/p65 complex in a dose-dependent manner”. Further, the “endogenous MHC Class I cell surface expression” value in the assay with MHC Class I is recorded as “decreased endogenous MHC Class I cell surface expression”. Besides, the “NF-κB induction by TNF-α” value in the assay with NF-κB is recorded as “completely abolished NF-κB induction by TNF-α”.
